Data: patent US6461867

Molecular target: VSV-7 peptide (Vesicular stomatitis virus)

B1: soluble H-2K^b (K^bsol), empty heterodimer of truncated K^b heavy chain and murine β-2 microglobulin (other)
alpha: GPHSLRYFVTAVSRPGLGEPRYMEVGYVDDTEFVRFDSDAENPRYEPRARWMEQEGPEYWERETQKAKGNEQSFRVDLRTLLGYYNQSKGGSHTIQVISGCEVGSDGRLLRGYQQYAYDGCDYIALNEDLKTWTAADMAALITKHKWEQAGEAERLRAYLEGTCVEWLRRYLKNGNATLLRTDSPKAHVTHHSRPEDKVTLRCWALGFYPADITLTWQLNGEELIQDMELVETRPAGDGTFQKWASVVVPLGKEQYYTCHVYHQGLPEPLTLRW
beta: IQKTPQIQVYSRHPPENGKPNILNCYVTQFHPPHIEIQMLKNGKKIPKVEMSDMSFSKDWSFYILAHTEFTPTETDTYACRVKHASMAEPKTVYWDRDM
Kd: 53 nM
